Test results taken from the supplement of paper PMC10567573.

B1: TMEM192 (parent)
chain: ILGKVILWILHLLLECYIQYHHSK
B2: OAS1 (parent)
chain: TPAKSLDKFIEDYLLPDTCFRMQI

Variants of: B1
Assay: protein stability index of a GFP-peptide fusion (GPS, HEK-293T) (PSI 1-6); higher = more stable
Conditions: c terminus: a fixed tail appended
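Note: lentivirally expressed fusions sorted by FACS into six bins by GFP to DsRed ratio, PSI derived from sequencing read proportions per bin multiplied by bin number.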

| Variant | protein stability index |
| --- | --- |
| ILGKVILWILHLLLECYIQYHHRK [S23R] | 3.3 |
| ILGKVILWILHLLLECYIQYHHQK [S23Q] | 2.32 |
| ILGKVILWILHLLLECYIQYHHMK [S23M] | 2.49 |
| ILGKVILWILHLLLECYIQYHHIK [S23I] | 2.68 |
| ILGKVILWILHLLLECYIQYHHFK [S23F] | 2.9 |
| ILGKVILWILHLLLECYIQYHHWK [S23W] | 3.3 |
| ILGKVILWILHLLLECYIQYHHKK [S23K] | 2.82 |
| ILGKVILWILHLLLECYIQYHHNK [S23N] | 4.27 |
| ILGKVILWILHLLLECYIQYHHVK [S23V] | 4.52 |
| ILGKVILWILHLLLECYIQYHHEK [S23E] | 2.49 |
| ILGKVILWILHLLLECYIQYHHDK [S23D] | 2.57 |
| ILGKVILWILHLLLECYIQYHHGK [S23G] | 3.2 |
| ILGKVILWILHLLLECYIQYHHYK [S23Y] | 2.72 |
| ILGKVILWILHLLLECYIQYHHAK [S23A] | 2.08 |
| ILGKVILWILHLLLECYIQYHHPK [S23P] | 1.54 |
| ILGKVILWILHLLLECYIQYHHLK [S23L] | 3.84 |
| ILGKVILWILHLLLECYIQYHHSI [K24I] | 2.38 |
| ILGKVILWILHLLLECYIQYHHSG [K24G] | 3.14 |
| ILGKVILWILHLLLECYIQYHHSR [K24R] | 3.46 |
| ILGKVILWILHLLLECYIQYHHSD [K24D] | 2.86 |
| ILGKVILWILHLLLECYIQYHHSW [K24W] | 3.65 |

| Variant | protein stability index |
| --- | --- |
| ILGKVILWILHLLLECYIQYHHSM [K24M] | 3.05 |
| ILGKVILWILHLLLECYIQYHHSL [K24L] | 2.65 |
| ILGKVILWILHLLLECYIQYHHSF [K24F] | 3.92 |
| ILGKVILWILHLLLECYIQYHHSH [K24H] | 2.07 |
| ILGKVILWILHLLLECYIQYHHSA [K24A] | 2.69 |
| ILGKVILWILHLLLECYIQYHHSV [K24V] | 2.48 |
| ILGKVILWILHLLLECYIQYHHSP [K24P] | 3 |
| ILGKVILWILHLLLECYIQYHHSC [K24C] | 2.89 |
| ILGKVILWILHLLLECYIQYHHSE [K24E] | 3.43 |
| ILGKVILWILHLLLECYIQYHHSN [K24N] | 3.06 |
| ILGKVILWILHLLLECYIQYHHST [K24T] | 3.66 |
| ILGKVILWILHLLLECYIQYKHSK [H21K] | 3.49 |
| ILGKVILWILHLLLECYIQYTHSK [H21T] | 2.54 |
| ILGKVILWILHLLLECYIQYGHSK [H21G] | 3.35 |
| ILGKVILWILHLLLECYIQYSHSK [H21S] | 2.67 |
| ILGKVILWILHLLLECYIQYYHSK [H21Y] | 4.47 |
| ILGKVILWILHLLLECYIQYPHSK [H21P] | 2.65 |
| ILGKVILWILHLLLECYIQYVHSK [H21V] | 3.35 |
| ILGKVILWILHLLLECYIQYLHSK [H21L] | 2.36 |
| ILGKVILWILHLLLECYIQYNHSK [H21N] | 1.95 |
| ILGKVILWILHLLLECYIQYWHSK [H21W] | 2.55 |

| Variant | protein stability index |
| --- | --- |
| ILGKVILWILHLLLECYIQYRHSK [H21R] | 1.92 |
| ILGKVILWILHLLLECYIQYMHSK [H21M] | 2.86 |
| ILGKVILWILHLLLECYIQYIHSK [H21I] | 3.57 |
| ILGKVILWILHLLLECYIQYHYSK [H22Y] | 3.11 |
| ILGKVILWILHLLLECYIQYHGSK [H22G] | 2.63 |
| ILGKVILWILHLLLECYIQYHASK [H22A] | 2.94 |
| ILGKVILWILHLLLECYIQYHFSK [H22F] | 2.56 |
| ILGKVILWILHLLLECYIQYHDSK [H22D] | 3.4 |
| ILGKVILWILHLLLECYIQYHISK [H22I] | 2.33 |
| ILGKVILWILHLLLECYIQYHTSK [H22T] | 2.36 |
| ILGKVILWILHLLLECYIQYHMSK [H22M] | 1.96 |
| ILGKVILWILHLLLECYIQYHWSK [H22W] | 3.65 |
| ILGKVILWILHLLLECYIQYHCSK [H22C] | 1.54 |
| ILGKVILWILHLLLECYIQYHSSK [H22S] | 3.42 |
| ILGKVILWILHLLLECYIQYHVSK [H22V] | 2.95 |
| ILGKVILWILHLLLECYIQYHLSK [H22L] | 1.94 |
| ILGKVILWILHLLLECYIQYHKSK [H22K] | 3.66 |
| ILGKVILWILHLLLECYIQYHPSK [H22P] | 2.33 |
| ILGKVILWILHLLLECYIQYHESK [H22E] | 2.6 |

Variants of: B2
Assay: as above
Conditions: c terminus: a fixed tail appended

| Variant | protein stability index |
| --- | --- |
| TPIKSLDKFIEDYLLPDTCFRMQI [A3I] | 3.83 |
| TPRKSLDKFIEDYLLPDTCFRMQI [A3R] | 2.23 |
| TPHKSLDKFIEDYLLPDTCFRMQI [A3H] | 2.99 |
| TPYKSLDKFIEDYLLPDTCFRMQI [A3Y] | 1.96 |
| TPPKSLDKFIEDYLLPDTCFRMQI [A3P] | 2.49 |
| TPDKSLDKFIEDYLLPDTCFRMQI [A3D] | 1.54 |
| TPLKSLDKFIEDYLLPDTCFRMQI [A3L] | 2.85 |
| TPQKSLDKFIEDYLLPDTCFRMQI [A3Q] | 2.56 |
| TPEKSLDKFIEDYLLPDTCFRMQI [A3E] | 2.88 |
| TPVKSLDKFIEDYLLPDTCFRMQI [A3V] | 3.63 |
| TPGKSLDKFIEDYLLPDTCFRMQI [A3G] | 3.77 |
| TPNKSLDKFIEDYLLPDTCFRMQI [A3N] | 2.47 |
| TPTKSLDKFIEDYLLPDTCFRMQI [A3T] | 1.64 |
| TPKKSLDKFIEDYLLPDTCFRMQI [A3K] | 2.57 |
| TPSKSLDKFIEDYLLPDTCFRMQI [A3S] | 2.42 |
| TPFKSLDKFIEDYLLPDTCFRMQI [A3F] | 3.88 |
| TPCKSLDKFIEDYLLPDTCFRMQI [A3C] | 3.23 |

| Variant | protein stability index |
| --- | --- |
| TPWKSLDKFIEDYLLPDTCFRMQI [A3W] | 2.58 |
| TPMKSLDKFIEDYLLPDTCFRMQI [A3M] | 2.11 |
| TPAKSLYKFIEDYLLPDTCFRMQI [D7Y] | 2.21 |
| TPAKSLKKFIEDYLLPDTCFRMQI [D7K] | 2.05 |
| TPAKSLNKFIEDYLLPDTCFRMQI [D7N] | 2.1 |
| TPAKSLHKFIEDYLLPDTCFRMQI [D7H] | 3.9 |
| TPAKSLCKFIEDYLLPDTCFRMQI [D7C] | 2.77 |
| TPAKSLIKFIEDYLLPDTCFRMQI [D7I] | 2.96 |
| TPAKSLPKFIEDYLLPDTCFRMQI [D7P] | 1.73 |
| TPAKSLRKFIEDYLLPDTCFRMQI [D7R] | 2.9 |
| TPAKSLQKFIEDYLLPDTCFRMQI [D7Q] | 2.94 |
| TPAKSLAKFIEDYLLPDTCFRMQI [D7A] | 2.77 |
| TPAKSLWKFIEDYLLPDTCFRMQI [D7W] | 3.11 |
| TPAKSLTKFIEDYLLPDTCFRMQI [D7T] | 1.25 |
| TPAKSLLKFIEDYLLPDTCFRMQI [D7L] | 2.42 |
| TPAKSLSKFIEDYLLPDTCFRMQI [D7S] | 3.08 |
